This note sets out measurements from patent US20230380451A1, “MEANS AND METHODS TO DETOXIFY MYCOTOXINS” (priority 2020, published 2023).

In data set [1] the test system is translation of firefly luciferase. It counts as biochemical. As to the method: To determine whether or not the conversion of DON into epi-THS through Akr I-III and the conversion of DON into THS through ADH-Lk, as described herein, leads to a decrease in toxicity, two assays were performed. The in vitro TNT® Quick Coupled Transcription/Translation System (Promega) was used to measure how well the metabolites inhibit protein synthesis and the CeIITox™ Green Cytotoxicity Assay (Promega; […].
For the in vitro transcription/translation assay, 40 μl of the TNT T7 quick master mix were mixed with 2 μl firefly luciferase encoding DNA and with 4 μl metabolites to obtain final concentrations from 0.01 μM-150 μM in the reaction. Reactions lacking metabolites were the reference for maximum luminescence output. Reactions were incubated at 30° C. for 90 min to allow for transcription of luciferase gene and subsequent translation. In an opaque (white) 96-well plate (Greiner Bio One) 100 μl Luciferase reagent where mixed with 4 μl of the reactions and immediately placed into a Synergy HT plate reader (Biotek) to read luminescence with a 2 sec and a 10 sec measurement delay. […].

Data set [2] can be described thus: DON transformation assay with ADH-Lk. The format is biochemical. To be noted: for DON / THS [peak area]: 30° C. On the procedure:
. All components of the reaction except of isopropanol and NADP+ were mixed on ice and a 0 minutes sample was removed (mix sample 1:1 (v/v) with 100% methanol to stop any reaction). Immediately thereafter, reaction mixtures were transferred to the heating block and the reaction was started by adding NADP+ and IPA. The reaction was allowed to proceed for 22 hours at 30° C. A control reaction with the same set up, but lacking the enzyme was set up in parallel. Samples were removed in regular intervals in order to monitor the progression of the reaction and immediately mixed 1:1 (v/v) with 100% methanol to stop the reaction. They were subsequently analyzed using the HPLC-MS/MS method described in below.
For HPLC-MS/MS analysis, DON and THS were separated on a 150 mm×2.1 mm Phenomenex Kinetex Biphenyl column with a particle size of 2.6 μm. The mobile phase consisted of a mixture of methanol and ultrapure water with 0.1% (v/v) acetic acid. Ions were generated using electro spray ionization (ESI) in negative ionization mode. The quantification is done using a QTrap and/or triple quadrupole mass detector. […].

Consider 8-amino-DON [Akr 8-amino-DON], for which the “times weaker effect on luminescence output compared to DON” value in data set [1] is 5-10 times.

B1: ADH-Lk: artificial amino acid sequence, variant of a wild type alcohol dehydrogenase (protein)
chain: MTDRLKGKVAIVTGGTHGIGLAIATKFVTEGAKVVITGRRADVGEKAAKSIGGTDVIRFVQHDVSDEAGWGKLFDTTEETFGPVTTLVNNAGIGYRKSVEDTTTEEWRKLLSVNLDGVFFGTRLGIQRMKCKGLGASIINMSSILGQVGDPATGAYSASKGAVRIMSKSAALLCALKDYDVRVNTVHPGPIKTPLMDDMPGAEEMMSQRTKTPMGHIGEPNDIAWVCVYLASDESKFATGAEFVVDGGYTAQ
modifications: ADH-Lk
B1: the DON in data set [2] (time 0 h) was 399.9 µg/L; in data set [2] (time 3.5 h) it was 387.1 µg/L; in data set [2] (time 22 h), 296.6 µg/L. In addition, the “THS [peak area]” value worked out at 7.88E+03 in data set [2] (time 3.5 h) and 1.13E+05 in data set [2] (time 22 h). Besides, the “production of THS from DON” value in data set [2] (presence of enzyme in the reaction) was “leads to the production of THS from DON”.
